# Assay results taken from patent publication US20080118529.
# T1: human fibrin α-chain (148-160) amyloid fragment with Lys157Ala mutation (FP13)
# T1 chain: KRLEVDIDIAIRS
# B1: human factor XII from plasma (Calbiochem, #233490) (protein)
# chain: IPPWEAPKEHKYKAEEHTVVLTVTGEPCHFPFQYHRQLYHKCTHKGRPGPQPWCATTPNFDQDQRWGYCLEPKKVKDHCSKHSPCQKGGTCVNMPSGPHCLCPQHLTGNHCQKEKCFEPQLLRFFHKNEIWYRTEQAAVARCQCKGPDAHCQRLASQACRTNPCLHGGRCLEVEGHRLCHCPVGYTGAFCDVDTKASCYDGRGLSYRGLARTTLSGAPCQPWASEATYRNVTAEQARNWGLGGHAFCRNPDNDIRPWCFVLNRDRLSWEYCDLAQCQTPTQAAPPTPVSPRLHVPLMPAQPAPPKPQPTTRTPPQSQTPGALPAKREQPPSLTRNGPLSCGQRLRKSLSSMTRVVGGLVALRGAHPYIAALYWGHSFCAGSLIAPCWVLTAAHCLQDRPAPEDLTVVLGQERRNHSCEPCQTLAVRSYRLHEAFSPVSYQHDLALLRLQEDADGSCALLSPYVQPVCLPSGAARPSETTLCQVAGWGHQFEGAEEYASFLQEAQVPFLSLERCSAPDVHGSSILPGMLCAGFLEGGTDACQGDSGGPLVCEDQAAERRLTLQGIISWGSGCGDRNKPGVYTDVAYYLAWIREHTVS
# Assays:
# [1] = biological target: human Aβ(1-40) Dutch type
# [2] = biological target: T1, human fibrin α-chain (148-160) amyloid …
protein,measurement,setting,value
B1,"activation of factor XII, detected by the conversion of Chromozym-PK upon formation of kallikrein from prekallikrein",[1],"Like kaolin, amyloid-like peptide aggregates of FP13 and Aβ stimulate the activation of factor XII"
same,"auto-activation of purified factor XII, substrate S-2222",[1],All three amyloid-like aggregates are able to induce factor XII auto-activation ... the potency of the Aβ(1-40) E22Q is somewhat lower
same,"activation of factor XII, detected by the conversion of Chromozym-PK upon formation of kallikrein from prekallikrein",[2],"Like kaolin, amyloid-like peptide aggregates of FP13 and Aβ stimulate the activation of factor XII"
